Test results as given in publication PMC10441969, “Small protein Cgl2215 enhances phenolic tolerance by promoting MytA activity in Corynebacterium glutamicum” (Stress Biology, 2022).

Molecular target: T1, His6-MytA (C. glutamicum, UniProt P0C1D6 44-657)
T1 sequence (looked up): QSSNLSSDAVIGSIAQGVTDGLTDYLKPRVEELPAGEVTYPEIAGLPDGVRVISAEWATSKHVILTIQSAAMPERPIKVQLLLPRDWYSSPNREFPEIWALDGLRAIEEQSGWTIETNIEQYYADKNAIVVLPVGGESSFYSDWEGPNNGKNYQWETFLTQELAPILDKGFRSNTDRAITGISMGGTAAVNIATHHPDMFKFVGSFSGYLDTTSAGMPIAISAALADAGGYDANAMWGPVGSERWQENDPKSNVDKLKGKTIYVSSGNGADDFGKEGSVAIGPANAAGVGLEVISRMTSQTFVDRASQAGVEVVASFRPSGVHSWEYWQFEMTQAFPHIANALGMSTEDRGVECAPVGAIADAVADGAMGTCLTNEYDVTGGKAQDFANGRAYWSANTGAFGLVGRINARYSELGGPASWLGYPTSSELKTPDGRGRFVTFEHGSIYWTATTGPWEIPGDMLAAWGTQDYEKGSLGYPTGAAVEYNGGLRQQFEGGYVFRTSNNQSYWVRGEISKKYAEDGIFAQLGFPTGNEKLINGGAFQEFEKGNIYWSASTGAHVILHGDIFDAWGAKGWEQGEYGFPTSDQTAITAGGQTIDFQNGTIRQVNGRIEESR
Assay: cell-based or functional assay

- in vitro esterase activity of MytA (release of p-NP from p-NPP; MytA 4.7 μM) with GST-Cgl2215 at a 1:1 ratio of GST-Cgl2215:MytA and higher ratios (further increased): 1.6 fold
B1: GST-Cgl2215 (natural protein, C. glutamicum, UniProt Q8NNI6 1-71, looked up)
chain: MNHKLFGSKQFRKEKEMGLRIRPNEMKVWETFTLERQLEVIINADHLLLFRGEPHGTVSLSDVVASELIGI
